Results from the nanobody polyreactivity screen of Harvey et al. (2022).

Test: yeast display, Sf9 membrane polyspecificity reagent, FACS + sequencing; frameworks hold sequencing errors
Summary of the method: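 Sorting gates, low and high (top ~1%), were placed on anti-HA fluorescence to track expression and on streptavidin fluorescence to track reagent binding. A clone's polyreactivity label is taken from the gate it came out of. The reagent was 10% biotinylated, detergent-solubilized Sf9 membrane, applied for 1 hour at 4 °C to galactose-induced yeast display cells.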

Sequence | polyreactivity (PSR sort gate)
QVQLVESGGALVQAGGSLRLSCAASGSIFYVYAMGWYRQAPGKEREFVAAITWSGGRTYYADSVKGRFTISRDNAKNTVYLQMNSLKPEDTAVYYCAAGKYRYTYYALEYDYWGQGTQVTVSS | low polyreactivity
QVQLVESGGGLVQAGGSLRLSCAASVRTFYRYAMGGYRQAPGKERELDAGISWRGGSTYYADSVKGRFTISRDNAKNTVYLQMNSLKPEDTAVYYCNAVTTPARTRLFKTVPYEYWGQGTQVTVSS | high polyreactivity
QVQLVESGGGLVQAGGSLRLRCAASGRTIGPYAMGWYRQEPRKERELVAAISWSGGSTYYADSVKGRFTISRDNAKNTVYLQMNSLKPVDTAVYFCAAVYYSHVYYWGQGTQVTVSS | high polyreactivity
QVQLVESGGGLVQAGGSLRLSCAASGSTFVGYAMGWYRQAPGKERELVAAISRSGGRTYYADSVKGRFTISRDNAKNTVYLQMNSLKPEDTAVYYCYPYYIASTFDYWGQGTQVTVSS | high polyreactivity
QVQLVESGGGLVQAGGSLRLSCAASGRIFDYYAMGWYRQAPGNERELVAAINSGGSTYYADSVKGRFTISRDNAKNTVSLQMNSLKPEDTAVYYCNALRKSLRGGDYWGQGTQVTVSS | high polyreactivity
QFQLVESGGGLVQAGGSLRLSCAASGITFGSSAMGWYRQAPGKDRELVAAIDTSGDDTYYADSVKGRFTISRDNAKNTVYLQMNSLKPEDTAVYYCNAVSTASDEYDYWGQGSQVTVSS | low polyreactivity
QVQLVESGGGLVQAGGSLRLSSAASGRIFVGYAKGWYIQAPGKERELVAGIRYSGGSTYYADSVKGRFTISRDNAKNTVYLQMNSLKPEDTAVYYCATQVWHYAGRPNYKYDYWGQGTQVTVSS | low polyreactivity
QVQLVESGGGLVQAGGSLRLSCAASGSIFWTNVMGWYRQAPGKERELVAAISYSDGSTYYADSVKGRFTISRDNAKNTVYLQMNSLKPEDTAVYYCAADQYYYWGGYDYWGQGTQVTVSS | low polyreactivity
QVQLVESGGGLVQAGGSLRLSCAASGFTFIYYAMGWYRQAPGKERELVAAIRWSGGSTYYADSVKGRFTISRDNAKNTVYLQMNSLKPEDTAVYYCAARAIYKSKYDYWGQGTQVTVSS | high polyreactivity
QVQLVESVGGLVQAGGSLRLSCAASGYIFYGYAMGWYRQAPGKEREFVAAITVRGGSTYYADSVKGRFTISRDNAKNTVYLQMNSEKPEDTAVYYCAAAPQFTFGVGYWGQGTQVTVSS | low polyreactivity
QVQLVESGGGLVQAGGSLRLSCAASGITFWEYAMGWYRQAPWKERELVAAISRSGGSTYYADSVKGRFTISRDNAKNTVYLQMNSLKPEDTAVYYCADETRRPIYDYWGQGTQVTVSS | high polyreactivity
QVQLVESGGGLVQAGGSLRLSCAASGRTFRPNVMGWYRQAPGKERELVAAISNGGRTYYADSVKGRFTISRDNAKNTVFLQMNCLKAEYTAVYYCNKVRSPWYDYWVQGTQVTVSS | high polyreactivity
QVQLVESGGGLVQAGGSLRLSCAASGSTFGRYAMGWYRPAPGKGRELDGAISRRGGSTYYADSVKGRFTISRDYAMKTVYFQMHSLKPEDTAVYDCATGYPIELGREFDYWGQGIQVTVSS | high polyreactivity
QVQLVESGGGLVQAGGSLRLSCAASGITFDSYAMGWYRQAPGKERELVAAISYSGGSTYYADSVKGRFTISRDNAKNTVYLQMNSLKPDDTAVYYCAAASDDDYDYWGQGTKVTVSS | low polyreactivity
QVQLVESGGGLVQAGGSLRLSCDASGSIFRSYAMGWYRQAPGKERELVASITRSSGSTYYADSVKGRFTISRDNAKNTVYLQMNSLKPEDTAVYYCAAYTGVRGYYYWGQGTQVTVSS | high polyreactivity
QVQLVESGGGLVQAGGSLRLSCAASGGIFNRYAMGWYRPAPGKERELVAGITRSGGSTSYADSVKGRFTISRDNAKNTVYLQMNSLKPEDTAVYYCNKVAYYASSSYYRFGAYGYWGQGTQVTVSS | high polyreactivity
QVQLVESGGGLDQAGGSLRLSCAASGIIFSLYAMGSYRQAPGKERELVAAISASDGDTYYADSVKGRFTISRDNAKNTVYLQMNSLKPEDTAVYYCAADATYYLGYEAEYYYWGQGTQVTVSS | low polyreactivity
QVQLVESGGGLVQAGGSLRLSCAASGRIFYFNSMGWYRQAPGKEREFVAAISGSGGDTYYADSVKGRFTISRDIAKNTVYLQMNSLKPEDTAVYYCAAEVYTWGQGTQVTVSS | low polyreactivity
QVQLVESGGGLVQAGGSLRLSCAASGSTFASYAMGWYIQAPGKERELVAAITDSGGSTYYADSVKGRFTISRDNAKNTVYLQMNSLKPEDTAVYYCAAYGPYFSYHDYDYWGQGTQVTVSS | low polyreactivity
QVQLVESGGGLVQAGGSLRLSCAASGLIFRYNAMGWYRQAPGKERELVAAISRSGGTTYYADSVKGRFTISRDNAKNTVYLQMNSLKPEDTAVYYCATRISQSYYNYGYWGQGTQVTVSS | high polyreactivity
QVQLVESGGGLVQAGGSLRLSCAASGSTFYRYAMGWYRQAPGKERELVATISGGGRTNYADSVKGRFTISRDNAKNTVYLQMNCLKPEDTAVYYCAARGYTGRFSRVNVPFYYWGQGTQVTVSS | high polyreactivity
QVQLGESGGGLVHEGGSLRLSCAASGFINFANTMGLYRQAPGKERELVAAITSDGSTYYADSVKGRFTISRDNAKNTVYLQMNSLKPEDTAVYYCNAQSNYADLAYWNDYWGQGTQVTVSS | low polyreactivity

Sequence | polyreactivity (PSR sort gate)
KVQLVESGGGLVQAGGSLRLSCAASGSIFSFYTKGWYRQAPGKERELVAAINWSGSRTYYADSVKGRFTISRDNAKNTVYLQMNSLKPVDTAVYYCAAYLWFYVRYEYWGQGTQVTVSS | high polyreactivity
QVQLVESGGGLVQAGGSLRLSCAASGYTIYYYAMGWYRQAPGKERELVAVITSRGPRTYYADSVKGRFTISRDNAKNTVYLQMNSLKPEDTAVYYCNKARGVAYDWGQGTQVTVSS | high polyreactivity
QVQLVESGGGLVQAGGSLRLSCAASGRIFRKYAMGWYIQAPGKEREFVASIRSRGDSTYYADSVKGRFTISRDNAKNTVYLQMNSMKPEDTAVYYCAAVSGSGYDYWGQGTQVTVSS | high polyreactivity
HVQLQESGGGLVQAGGSLRLSCAASGSIFQATYMGWYRQAPGKEREFVASITYGSITKYADSVNGRFTIGRDNAKDTLYLQMNSLKPEDTAVYYCAVDRHYIPAFHYWGQGTQVTVSS | low polyreactivity
QVQLVESGGGLVQAGGSLRLSCAASGSIFPSYGMGWYRQAPGKERELVARITSGGGTNYADSVKGRFTISRDNAKNTVYLQMNSLKPEDTAVYYFNKAFRGSQGHRGHYRYGYWGQGTQVTVSS | high polyreactivity
QVQLVESGGGLVQAGGSLRLSCAASGGILGVNAMGWYRQAPGKERELVAAISGRGGRTYYADSVKGRSTISRDNAKNTVYLQLNSLKPEDTAVYYCAVEFYSVARFPLWSYYWGQGTQVTVSS | high polyreactivity
QVQLVESGGGLVQAGGSLRLSCAASGSIFYTYAMGWYRQAPGKERELVAAISGTGTSTYYADSVKGRFTISRDHAKNTVYLQMNSLKPEDTAVYFCATHGGAAWGRYYWYYGYWGQGTQVTVSS | low polyreactivity
QVQLVESGGRIVQAGGSLRLSCAASGRLFDRYAMGWYRQAPGQERELVAAISWSAGSTYYADSVKGRFTISRDNAKNTVYLQMNSLKPEDTAVYYCAVPARGTFLLRDGGRAEFDYWGQGTQVTVSS | low polyreactivity
QVQLVESGGGLVQAGGSLRLSCAASASTFVYNAKGWYRQAPGKERELVASITRSGSSTYYADSVKGRFTISRDNAKNTVYLQMNSLKPEDTAVYYCDVRYSVLSNYRYYYWGQGTQVTVSS | low polyreactivity
QVQLVESGGGLVQAGGSLRLSCAASGSIIWRNAMGWYRQAPGKERELVAAITWSRGSTFYADSVKGRFTISRDNAKNTVYLQMNSLKAEDTAVYYCAAYGGRRFDYWGQGTQVTVSS | low polyreactivity
QVQLVESGGGLVQAGGSLRLSCAASGFIFGINAMGWYRQAPGKEREFVATITSGGGTNYADSVKGLFTISRDNAKNTVYLQMHSLKPEDTAVYYGAAEEDYIYFYVSMDYWGQGTQVTVSS | low polyreactivity
QVQLVESGGGLDQAGGSLRLSCAASGSIFSYYAMGWYRPAPGKERELVADNRWSGGSTYYADSVKGRFTISRDKAKNTVYLQMNSLKPEDTAVYYCNTLYLVYLYWTSPTPSDLFDYWGQGTQVTVSS | low polyreactivity
QVQLVESGGGLVQAGGSLRLSCAASGSTLDSYTMGWYRQAPGKERELVATISTSGGSTYYADAVKGRFTISRDNAKNTVSIQMNSLKPEDTAVYYCKADAPFGPNRYNSWGQGTQVTVSS | low polyreactivity
QVQLVESGGGLVQAGGRLRLSCAASGRIFFRNTMGWYRQEPGKERQLVAAISGSGGSKYYADSVKGRFTISRDNAKNTVYLQMNSLKPEDTAVYYCAKRWLYPISYDYWGQGTQVTVSS | high polyreactivity
QVQLVESGGGLVQAGGSLRISCAASGSIFRYYYMGWYSQAPGKERELVAAITYSGGGTYYADSVKGRFTISRDNAKNTVYLQMNSLKAEDTAVYYCAVRRVGSIYIDRYIYVVSDYFYWGNGTQVTVSS | low polyreactivity
QVQLVESGGGLVQAGGSLRLSCAASGRIFTHNTMGWYRQAPGKERELVAAISSSGGSTYYADSVKGRFTISRDNAKNTVYLQMNSLKPDDTAVYYCNTLIKGRWIVVGYGYPGYDYWGQGTQVTVSS | high polyreactivity
QVQLVESGGGLVQAGGILLLSCAASRRIFGVYAMGWYIQAPGKERELVATIRSSGTRKNYADSLKGRFTISRDNAKNTVYLQLNSLKPEDTAVYYCAAGGRPYKLDFTRSDYWGHGTQVTVSS | low polyreactivity
QVQLVESGGGLVQAGGSLRLSCAASGRIFRAYARGWYRQAPGKERELVAAITRGGGTYYADSVKGRFTISRDNAKNSVYLQMNSLKPEDTAVYYCAAGRQRGPGYYFTFDYWGQGTQVTVSS | high polyreactivity
QVQLVESGGGLVQAGGSLRLSCAASGRTLRGYAMGWYRQAPGKERELVARITGSGGSTYADSVKGRFTISRDNAKNTVYLQMNSLKPEDTAVYYCAAGYSIYYYYAYTISRVSYDYWGQGTQVTVSS | high polyreactivity
QVQLVESGGGLVQAGGSLRLSCAACGGIFWHYTLGWYRKAPGKERELVAAITRRGGSTYYADSVMGRFTISRDNAKNTVYLQMNSLKPEDTAVYYCAADFLPQSYNWYDYWGQGTQVTVSS | low polyreactivity
QVQLVESGGGLVQAGGSLRLSCAASGSILYYYAMGWYRQAPGKERELVAAISWSGASTYYADSVKGRFTISRDNAKNTVYLQMNSLIPEDTAVYYCNADYTRDRYVANRYYYWGQGTQVTVSS | high polyreactivity
